# Test results published in patent US20100272736A1 (KALOBIOS PHARMACEUTICALS, published 2010).
# Changes are numbered by the printed parent chain.
# B1: Fab SEQ ID NOs: 13, 4 (Fab, V domains shown)
# VH: QVQLVESGGGVVQPGRSLRLSCAASGFTFSSYPLHWVRQAPGKGLEWVSFISYDGSEKYYASSVKGRFTISRDNSENTLYLQMNSLRPEDTAVYYCARNRGDIYYDFTYAMDIWGQGTMVTVSS
# VL: DIQMTQSPSSLSASVGDRVTITCRASQSISRWVAWYQQRPGKAPNLLIYDASSLKSGVPSRFSGSGSGTEFTLTISSLQPEDIATYYCQQFWSTPYTFGQGTKLEIK
# B2: Fab SEQ ID NOs: 13, 37 (Fab, V domains shown)
# VH: B1 VH
# VL: B1 VL with S93G
# B3: Fab SEQ ID NOs. 24, 26 (Fab, V domains shown)
# VH: B1 VH with Q1E, S31N, L34M, S49A, F50V, Y59W, S62D, E76K, Q82E, M119T
# VL: DIQLTQSPSTLSASVGDSVTITCRASEGVDRWLAWYQQKPGRAPKLLIYDASTLQSGVPSRFSGSGSGTEFSLTISSLQPDDVATYYCQHFWGTPYTFGQGTKLEIK
# B4: Fab SEQ ID NOs: 13, 10 (Fab, V domains shown)
# VH: B1 VH
# VL: DIQLTQSPSFLSASVGDRVTITCRASQGISTYLAWYQQKPGKAPKLLIYDASALQSGVPSRFSGSGSGTEFTLTISSLQPEDVATYYCQQFWSTPYTFGQGTKLEIK
# B5: Fab SEQ ID NOs 3, 4 (Fab, V domains shown)
# VH: QVQLVESGGGVVQPGGSLRLSCAASGFTFSTAGMHWVRQAPGKGLEWVAVIWYNGKEISYADSVKGRFTVSRDNPKNTLYLQMSSLRTEDTAVYYCARNRGDIYYDFTYAMDIWGQGTMVTVSS
# VL: B1 VL
# B6: Fab SEQ ID NOs: 5, 6 (Fab, V domains shown)
# VH: B5 VH with G16R, A23T, T28S, T31S, A32Y
# VL: B4 VL with D1A, D50A, A53S, E70D
# B7: Fab SEQ ID NOs. 35. 36 (Fab, V domains shown)
# VH: EVQLVESGGGVVQPGRSLRLSCAASGFTFSNYPMHWVRQAPGKGLEWVAVISYDGSEKWYADSVKGRFTISRDNSKNTLYLEMNSLRPEDTAVYYCARNRGDIYYDFTYAMDYWGQGTTVTVSS
# VL: B3 VL with G93S
# Target: PcrV on Pseudomonas aeruginosa strain PA103 (type III secretion system) (Pseudomonas aeruginosa strain PA103)
# Assay: cell-based or functional assay
row,Binder,"IC50 (nM), TTSS-dependent cytotoxicity assay (PA103 killing of P3-X63-Ag8 myeloma cells, propidium iodide flow cytometry)"
1,B1,20 nM
2,B2,12 nM
3,B3,25.5 nM
4,B4,25.5 nM
5,B5,35.1 nM
6,B6,50.2 nM
7,B7,61.4 nM
